± gives the uncertainty stated by the source.

The nature of the series: amyloid nucleation score (Sup35N fusion, yeast selection) (log enrichment); library NNK1; higher = more nucleation; inactive = no reads after selection. The method, boiled down: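 Yeast lacking psi expressed peptides of 20 random codons fused to Sup35N, received 100 μM copper sulfate for 24 hours, and were then grown for 7 days at 30°C on medium lacking adenine and uracil. Illumina sequencing of input and output plasmid inserts provided the reads. Nucleation scores are DiMSum log enrichments of output over input, centred on the mode of non-aggregating sequences. Any sequence with under 100 input reads was excluded.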

NREIPQWIGFVY had an amyloid nucleation score of 1.12 ± 0.65. Under PYYHHVGVGYAFYVICVRAF stands “inactive”.

Substance CDWNLSNGGYGDHARCSGSA gave an amyloid nucleation score of 5.13 ± 0.069. Under STDVFYLV stands -0.669 ± 0.39; under CGLLWSCSKLH, 1.56 ± 0.42; under MQVNIVGVSILVAWPR, 6.48 ± 0.071. HDSNHFLRDLLVILRYYEAV: the amyloid nucleation score entry is “inactive”. As for ENLGGWAPTLCYRRT, the amyloid nucleation score amounted to 0.187 ± 0.4. With IIREFSEGWVISKLDQD, the amyloid nucleation score was -0.446 ± 0.3. Under TFSDFIQKGWRFIFKYPFRC stands 0.686 ± 0.35; under SLYFFLFRCVCKRLYSGWNV, -0.481 ± 1; under DTLIFVLREVTLLNDAGVSS, 0.646 ± 0.42. As for LRNVVSYREDFECSWGCHRG, the amyloid nucleation score was 0.724 ± 0.32. Under SLSPWWIHANPWWPYMSNQV stands “inactive”; under CHIWPDVLNVCAILGDLRKR, 1.18 ± 0.16; under SRCNHICHNYISMFLINCEL, 5.71 ± 0.061.

In the case of SCCWVSIDSNQCHRACTVRT, the amyloid nucleation score was -0.136 ± 0.56. Under VGSCCNQ stands 7.591 ± 0.046; under DCGAWGHTLVSWSKYLGKSF, 3.64 ± 0.092. For the substance SCEFLCVRHVLCHHLSLNVS, the amyloid nucleation score was determined as 0.296 ± 1.4. In turn, QGLADNKSSFKGV yielded an amyloid nucleation score of 0.591 ± 1.

TLLSNWVEMNPLYFMLDLPY gave an amyloid nucleation score of 0.225 ± 0.48. For the substance QRMLHAYLCVNWAELTHIRV, the amyloid nucleation score worked out at 0.034 ± 0.6. Regarding CTLSYSCFLVVLSFYGQSSF, the amyloid nucleation score came to 0.366 ± 0.24. In the case of GLGVIVVCPVCGSKGVCGKW, the amyloid nucleation score is -0.914 ± 1.4. For TPTTLKDYYPRAGNINRMTY, the amyloid nucleation score is -0.15 ± 0.28. KNAYHFRG: the amyloid nucleation score came to 0.113 ± 0.97. As to MLSMFGWISSIFVYYYLNKR, the amyloid nucleation score was determined as 0.571 ± 0.17. KERIFPLTTEAMKLERKA: the amyloid nucleation score was -0.341 ± 0.57.

SSIAAIVM had an amyloid nucleation score of 0.723 ± 0.41. Under VNCSRYRGESASDNWSGALL stands -0.186 ± 0.85; under FIFCAGCVENNTSSPK, 6.224 ± 0.059. Under GASRVTNYRELLMASANHDG stands -0.413 ± 0.45; under WNSSYDGRFIAYAMQWSNKE, -0.118 ± 0.48. In turn, CDSYELSQTAQRNNSTLRQS displayed an amyloid nucleation score of -0.359 ± 1.9. Under LIHSRKVLSSMTYIEGPLTS stands 0.166 ± 0.34; under SINVPPHSGHELH, 1.12 ± 0.76; under VSTGWKRLKFQLVIGCFS, 0.502 ± 0.53.

Substance VGKELLLSLRYSNWVCLDWF yielded an amyloid nucleation score of -0.715 ± 1.4. IEYCIVSFQSMGE yielded an amyloid nucleation score of 0.326 ± 0.46. Substance GSSKNFH had an amyloid nucleation score of 0.972 ± 0.43. Under DFFLIFWWDSFSAGVCQMNS stands 0.356 ± 0.51; under TDMLMLIMIRVSLIGRRTFQ, “inactive”; under LDQRKGPFSNSALRGHSWCN, -0.506 ± 0.44. Under VSFIYFRVWILAMDY stands 0.842 ± 0.37; under ILENTVCSIFVSVVIANVGL, 1.94 ± 0.53; under AYGLNARIHTATGECLLGYA, -0.143 ± 0.24. For SVTLIGFILDLRTGHILWYK the value was -0.423 ± 0.62; for FSPLCKPLNSWYNQVKYRRH, 0.131 ± 0.84.

Regarding LVRWSLLRFFL, the amyloid nucleation score stood at 1.89 ± 0.59.

In turn, AHLAVPSQLNECFIVSLWV showed an amyloid nucleation score of 0.328 ± 0.76.

Take LQRCAKLYSMSILTYAIIRF: the amyloid nucleation score was -0.525 ± 0.28. Under QTSLMMWLRR stands “inactive”. Under LLICADVITFCFECTMRTGF stands 4.13 ± 0.064. For LNALFYLKWALRRWSRKYCE the value was 1.39 ± 0.79; for LYRDSLKLF, -0.725 ± 0.49; for WLLVNMDDYLAGYCITHFRN, -0.359 ± 0.58. In the case of NIEVYDFYNINSMYNV, the amyloid nucleation score came out at 4.54 ± 0.079. For PWASNIAFLNFPTCTDCDG the value was 2.09 ± 0.28. Under STNIGWAMINLKRYPVLRDA stands -0.18 ± 0.29; under SKLLNVDLTPCRSRTTLFVC, 1.29 ± 0.47. Under FYLFVMKDASILYLVCSFSF stands -0.46 ± 0.4. IGGCWLLQMN: the amyloid nucleation score stood at 0.369 ± 0.44. For GSQSEVVCGW the value was 1.14 ± 0.74. For TFRGNRIINQNWGYHCMWWC the value was 5.733 ± 0.056; for FYQYVKCVIVPSVDALGVFS, 0.931 ± 0.2. As to DSGCRTRVTLSRGFYRTFSS, the amyloid nucleation score turned out to be 1.2 ± 0.6.

CRRPEWCEWQGLQTEE displayed an amyloid nucleation score of 0.266 ± 0.83.

The substance MVWPFKRRRWHYGILALLDR came in with an amyloid nucleation score of -1.22 ± 0.75. Under VVSDNSMDV stands 0.39 ± 0.47; under SVVMHSWLLLIVTSGSFMYV, 0.218 ± 0.53; under CTRFKGFAWTSMLRL, 0.21 ± 0.75. For WVGFRQCLSASMCAPDPQTD the value was 0.748 ± 0.8; for QDAIMFGSDPLFYILLGLWG, “inactive”; for QLKCPKNDHVIVWDFCINQL, 2.28 ± 0.32. Consider VTQIKPVRRLGGL, for which the amyloid nucleation score was -0.692 ± 0.87. For FYHFALFGVCARVPSDLACV the value was “inactive”; for LLIDSPCNWCTRGRSCKFSY, “inactive”; for APCRVMIYINMSMDYWTMES, 5.19 ± 0.072. For LKTWVDFRDYLLAPKAVCIY the value was 0.161 ± 0.57; for INTCCIRCFRQYGNFNKIKT, 0.662 ± 1.1; for AGSLAM, -0.246 ± 0.48. For LLHCKVICRRCCVIWSSCSI the value was 2.09 ± 0.46; for GACHLGDDYFRSSVVVTKSA, 0.232 ± 0.39. IYNLNVISSVCESTRCRQTA showed an amyloid nucleation score of 7.08 ± 0.078.

Take SLCRGATGGDGWWGVCSSA: the amyloid nucleation score turned out to be 0.614 ± 0.91.

As to SLSFVVSGMRFAFAGFFMVS, the amyloid nucleation score is -0.055 ± 0.21. KGDNIPLGAPSREMLTVYRA yielded an amyloid nucleation score of -0.146 ± 0.5. For IRKIS the value was -1.13 ± 1.7.

Take ALLIPINTLGDN: the amyloid nucleation score is 0.605 ± 0.7. For LVGMCNHTYDS the value was 0.998 ± 0.66; for YTNGNIASTVLYLRPGYHLA, 1.06 ± 0.49. Under AYKDGVTTLDLGCTGCFCYA stands 4.7 ± 0.072. For PVKVWARTVQSVAWLFSCG the value was -0.016 ± 1.4; for YIYYSNFCPDRLIVFINAMT, “inactive”. On to LRVMKKRLVDATHNFVPVAN, for which the amyloid nucleation score was 4.33 ± 0.075.

LLLLVRFYGSGSPHSGAEPI gave an amyloid nucleation score of -1.14 ± 1.5. For QCLRWDPGI, the amyloid nucleation score was found to be 1 ± 0.51. Take IMETHLFLTETGNLLSKMGD: the amyloid nucleation score result is “inactive”.

With LSCWLYNPGYCVSVEFC, the amyloid nucleation score was 6.906 ± 0.056. As to MDKSELK, the amyloid nucleation score was 0.128 ± 0.86. LGLYSVCC: the amyloid nucleation score was -0.219 ± 0.3. In turn, VWEFD showed an amyloid nucleation score of -0.537 ± 0.42. Under RHMRSHENVGKFWRLSCFVN stands -0.36 ± 0.51; under RPYGPYALLWSISIYAWELL, 0.508 ± 0.61; under GREANILFLYLVLRTFFRMG, “inactive”. For FGYTVFIDFVSSGMMRFGGQ the value was 0.784 ± 0.48. For VFGAFSESLLYSR the value was 0.51 ± 0.35; for CNKWRYSFVCIPGISRQ, 2.22 ± 0.091. Regarding VRYEIAA, the amyloid nucleation score was -1.06 ± 2.4. For VGRTNFYCYWFPCRSLDLLS the value was 5.8 ± 0.046. For NSKCSLIQCTGPLVRERRSY the value was 0.058 ± 0.31; for RVETYRSYGAIIEVNRPVYM, 0.625 ± 0.6; for LCSNYQCLTTVYQLVVVAEW, 3.54 ± 0.13. For FLYVLDSVSCQ the value was 0.648 ± 0.69. Turning to PGRIYGRSGCYRV, the amyloid nucleation score is 0.482 ± 0.69.

LHLVTYFVTYVLYSFSISAS had an amyloid nucleation score of -0.268 ± 0.7. For YIPQSPDDSFWEVMFYLFLS the value was -0.43 ± 1.2; for WPLRESCGICERRAWCRSAY, 0.923 ± 0.63; for TLHKFCLSGVHSFVGVTNST, 0.06 ± 0.46. Under NNSHFQSNGNIWSNNSSPSA stands “inactive”. Under NVRYFLWGNAETIYL stands 0.769 ± 0.29; under KIIPRRRKSFMLNTFKYPHD, 1.62 ± 0.52; under CHFSYSI, 0.558 ± 1.1. On to ISRSASVGRGLGKYESRAVR, for which the amyloid nucleation score worked out at 0.353 ± 1.2.

ISAVGKYESDTVGPSKND registered an amyloid nucleation score of 0.507 ± 1. Under GIIRKVLAEANLNCKVSSYR stands -0.488 ± 0.61; under GIDVCWSFFILYVWERVIRG, 0.337 ± 0.36.

In the case of RYPSLLWIFDFNYLLYLRFQ, the amyloid nucleation score was -0.451 ± 0.25. Under GFLDVALTLSWANHRGDSSV stands 3.04 ± 0.13; under RTELPHFFRVFAHRFACSGD, 1.31 ± 0.93; under PCSFNA, -0.267 ± 0.72. Regarding LFFMVLFNKSTEFERLFHIV, the amyloid nucleation score is -0.633 ± 0.56. With RFYMCRLEGVPFES, the amyloid nucleation score was found to be 0.58 ± 0.79. Under EPSLERRRRPSEMVGAKGWI stands -0.374 ± 1.1; under ELMCNTQSLSAETCFGKKSY, 0.97 ± 0.63. KVNLTSCSY returned an amyloid nucleation score of -0.059 ± 0.42.

RYHTVYGIYGRLWGWFMKFD: the amyloid nucleation score is -0.159 ± 0.33.

For the origin of these results see the supplement of paper PMC12042874.
